Source: article PMC3419727, “Identifying the Hotspots on the Top Faces of WD40-Repeat Proteins from Their Primary Sequences by β-Bulges and DHSW Tetrads” (PLoS ONE, 2012)
Residue numbers refer to the chain shown, from its start. Where “and” joins values, the source holds several entries; their conditions need not be identical. Identical values can stand only once.

Experiments:
[1] = target: T1, S. japonicus Tup11 WD40 domain (301–630) Tyr508Ala (S. japonicus, UniProt B6JV84 301-630, Tyr508 substituted by Ala); assay: ITC; Fep1 (~1.4 mM) injected, 2 µl each time, into Tup11 WT or mutant (~0.2 mM); 25°C; 1×PBS pH 7.4, 150 mM NaCl; iTC200 (MicroCal); Fep1 into buffer subtracted as background; settings: both partners purified
T1 construct: Tup11, S. japonicus, WD40 domain, amino acids 301-630
T1 sequence (looked up): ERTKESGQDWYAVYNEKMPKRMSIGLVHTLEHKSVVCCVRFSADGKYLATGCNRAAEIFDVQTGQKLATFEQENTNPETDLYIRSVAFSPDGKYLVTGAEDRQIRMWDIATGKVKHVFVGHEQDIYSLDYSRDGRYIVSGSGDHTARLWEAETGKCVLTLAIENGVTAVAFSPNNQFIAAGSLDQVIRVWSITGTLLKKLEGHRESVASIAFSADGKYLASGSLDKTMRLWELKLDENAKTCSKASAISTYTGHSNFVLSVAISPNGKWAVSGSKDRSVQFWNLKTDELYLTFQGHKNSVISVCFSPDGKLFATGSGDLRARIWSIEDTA

[2] = target: T2, S. japonicus Tup11 WD40 domain (amino acids 301–630), wild type (S. japonicus, UniProt B6JV84 301-630); assay: ITC
T2 chain: T1 sequence (looked up) with A208Y

[3] = target: The remained five residues (Ala substitutions at R1 positions of Tup11); assay: ITC; Fep1 (~1.4 mM) injected, 2 µl each time, into Tup11 WT or mutant (~0.2 mM); 25°C; 1×PBS pH 7.4, 150 mM NaCl; iTC200 (MicroCal); Fep1 into buffer subtracted as background
[4] = target: Leu524Ala at D-1 and Phe557Ala at R1-2; assay: as above

B1: C-terminal region of S. pombe Fep1 (amino acids 319–564) (domain or fragment, UniProt Q10134 319-564, looked up)
chain: AAGEPDNNGKVYYSYGPTQEQSILPLPENKHEGLPPYQNEYVPNGIRANQVVYPGQLVAVGNDSSKQLSESTTSNTDNNGVATANQSNPLGMKFHLPPILPVGESVCLPPRTSAKPRIAEGIASLLNPEEPPSNSDKQPSMSNGPKSEVSPSQSQQAPLIQSSTSPVSLQFPPEVQGSNVDKRNYALNVLSQLRSQHDLMIQELHNLNQHIQQIDEWLRSSDNENMASEHIKSSTPAVVASGALQT
notes: Fep1, GATA-factor, S. pombe, C-terminal region, amino acids 319-564
In the case of B1, the binding result [1] is reported as “binds”, the Ka [2] is reported as 70000 M⁻¹ and the reduction of binding free energy against wild type [3] is reported as 1 kcal/mol and 1.5 kcal/mol. The reduction of binding free energy against wild type [4] was 0.5 kcal/mol and 0.8 kcal/mol.
